{"source": "patent US8741840B2", "about": "“BMP-7 for use in treating neointimal hyperplasia” (Washington University, priority 2008, dated 2014)", "molecules": {"B1": {"name": "BMP-7: bone morphogenetic protein-7 (osteogenic protein-1), mineralization-countering morphogen; provided by Johnson and Johnson (protein, listed as Homo sapiens)", "chain": "STGSKQRSQNRSKTPKNQEALRMANVAENSSSDQRQACKKHELYVSFRDLGWQDWIIAPEGYAAYYCEGECAFPLNSYMNATNHAIVQTLVHFINPETVPKPCCAPTQLNAISVLYFDDSSNVILKKYRNMVVRACGCH"}}, "key": {"[1]": {"tested_on": "LDLR−/− mice with CKD on high fat diet", "assay": "Chemical quantitation of aortic calcium in high fat fed LDLR-/- mice with CKD (treatment study, weeks 22-28)", "type": "in vivo, mouse", "conditions": "therapy weeks 22-28 post natal; BMP-7 10 μg/kg IP weekly; CaCO3 or LaCO3 3% in diet (FIG. 1A, FIG. 2)", "description": "At 10 weeks, animals were either continued on this chow diet or initiated on a high cholesterol (0.15%) diet containing 42% calories as fat [Harlan Teklad, Madison Wis., Product No. TD88137].\nInduction of CKD: A two-step procedure was utilized to create uremia as previously described. (Davies 2003; Lund, 2004)^19;21 Saphenous vein blood samples were taken 1 week following the second surgery to assess baseline post-surgical renal function. Animals were sacrificed under anesthesia 28 weeks post natal. At the time of sacrifice, blood was taken by intracardiac stab, and the heart and aorta dissected en bloc. The BMP-7 treated group received intraperitoneal injection of BMP-7 10 μg/kg dry weight once weekly in 100 μl vehicle [mannitol (5% w/v), NaAcetate buffer (20 mM, pH 4.0-4.5), sterile water].\nGroup 1 were LDLR−/− mice on the high fat diet sacrificed at 22 weeks. Group 2 were LDLR−/− mice with CKD fed the high fat diet and treated weekly from 22 to 28 weeks with vehicle IP. […]\nChemical Calcification Quantitation: similar to our previous experimental plans (Davies 2003; Davies 2005).^19;20 Aorta and hearts were dissected at sacrifice, and all extraneous tissue removed by blunt dissection under a dissecting microscope. […]\nMice were treated with 10 mcg/kg BMP-7 injected intraperitoneally once weekly. […] The data are expressed as group mean±SEM, n=4-7.\nThe data are expressed as group mean±SEM, n=4-5."}, "[2]": {"assay": "Blood tests: serum biochemical parameters in the various groups of animals", "type": "in vivo, mouse", "quoted_text": "Animals were sacrificed under anesthesia 28 weeks post natal. At the time of sacrifice, blood was taken by intracardiac stab, and the heart and aorta dissected en bloc. The BMP-7 treated group received intraperitoneal injection of BMP-7 10 μg/kg dry weight once weekly in 100 μl vehicle [mannitol (5% w/v), NaAcetate buffer (20 mM, pH 4.0-4.5), sterile water].\nAnimals were allocated to one of seven CKD high fat fed groups after the second surgery: Other control Groups included LDLR−/− sham operated mice on chow diet, and LDLR−/− mice with CKD on chow diet. C57B16 WT mice fed chow served as the normal benchmark source. […] Group 1 were LDLR−/− mice on the high fat diet sacrificed at 22 weeks. Group 2 were LDLR−/− mice with CKD fed the high fat diet and treated weekly from 22 to 28 weeks with vehicle IP. […] Group 3 was the first treatment group. These were LDLR−/− mice with CKD on high fat diet that received BMP-7 treatment (10 μg/kg IP weekly). Group 4 were LDLR−/− mice with CKD on high fat diet treated with sevelamer CO3 1%. Group 5 were LDLR−/− mice with CKD on high fat diet treated with sevelamer CO3 3%. […] Once the mice were randomized into groups, they were allowed to develop calcification from weeks 14 through weeks 22 post natal. Therapy was initiated at 23 weeks postnatal and continued until week 28 postnatal at which time the mice were examined.\nBlood tests: Serum was analyzed on the day of blood draw for blood urea nitrogen [BUN], cholesterol, calcium and phosphate by standard laboratory methods. Before initiation of therapy, blood was obtained through saphenous vein. At the time of sacrifice, blood was obtained through intracardiac stab."}, "[3]": {"tested_on": "LDLR−/− high fat fed mice", "assay": "Histology of proximal aorta (alizarin red): calcified atherosclerotic plaques", "type": "in vivo, mouse", "text": "Tissue Preparation: Resected specimens were flash frozen in liquid nitrogen, then divided as follows: the heart, ascending aorta and aortic arch were separated from the descending aorta, and bisected sagittally through the aortic outflow tract. The descending aorta was bisected coronally, approximately halfway along its length. In order to visualize calcification in the tissue sections, Slices (5 μm thick) were cut and stained with von Kossa and Trap staining.\nAdditional mice were enrolled to the study for qualitative analysis of aortas to quantitate the effects of the treatments, because aortas of the experimental animals were destroyed by the technique of quantifying the aortic calcium content. Vascular calcification was largely aortic atherosclerotic plaque associated (FIG. 3), and punctate calcifications in the tunica media were observed. Panel A: Large lipid laden plaque (between arrows) in proximal aorta of a sham-operated high fat fed LDLR−/− mouse. Thick arrows identify focal calcifications in the base of the plaque. Panel B: A large calcified plaque (between arrows) in the proximal aorta of a CKD high fat fed LDLR−/− mouse. Panel C: A large lipid laden plaque (between arrows) in the proximal aorta of a BMP-7 treated CKD high fat fed LDLR−/− mouse. The stain is alizarin red. Magnification is 400× in A-C."}, "[4]": {"tested_on": "human vascular smooth muscle cells (hVSMC) isolated from atherosclerotic donors", "assay": "Phosphorus stimulated matrix mineralization (matrix Ca content) in hVSMC cultures", "type": "cell-based", "set-up": "Matrix Ca content, Effects of 10 ng/ml BMP-7: unit not given here", "protocol": "Cell Culture: Human adult aorta were obtained from seven cadaveric organ donors rejected because of atherosclerosis by Mid-America Transplant Services (St. Louis, Mo.) and enzymatically digested to obtain Human Smooth Muscle Cells (HSMC). Medial tissue was separated from the adventia and intima and digested with collagenase type I (Worthington, Lakewood, N.J.) 2 mg/ml for 1 hr, and washed with Hank's balanced salt solution (HBSS). Further digestion followed with collagenase type II 1 mg/ml (Worthington, Lakewood, N.J.) and elastase 0.25 mg/ml (Worthington, Lakewood, N.J.) for 4 hrs. Cell suspensions were washed twice with HBSS and cultured in T-75 flasks for three weeks in a 95%/5% air/CO2 humidified environment at 37° C. The growth medium used was DMEM containing […] glucose (high glucose), 10% fetal bovine serum (FBS, Atlas, Fort Collins, Colo.), 1 mM sodium pyruvate, 100 units/ml Penicillin and […] Streptomycin (Sigma, St Louis, Mo.). Cell purity was assessed by positive immunostaining for α-smooth muscle actin and calponin and for the absence of von Willebrand factor. In all experimental protocols, cells were seeded at 1×10^5 cells/well in six-well plates. Medium was changed on the first day and every third day thereafter. In all cases, cells used were between passages two and five (Table 3).\nInduction of Calcification: At the time of confluence, cells were switched to mineralization medium consisting of DMEM supplemented with 1 or 2 mM Pi. For cells exposed to BMP-7 treatment, fresh mineralization medium containing either vehicle (mannitol, acetic acid, acetate) or BMP-7 in vehicle was added at 0.1, 1.0, 10, or 100 ng/ml. The medium was changed every two or three days. […] Calcium content was quantified and normalized to cellular protein as described. (Jono 2000; Moe S. M. et al., Kidney Int 67:2295-2304, 2005)^11;52\nIn vitro matrix mineralization. […]"}, "[5]": {"tested_on": "AV anastomosis NH lesion in mice", "assay": "Neointimal hyperplasia lesion formation at arteriovenous fistula anastomosis in CKD and sham mice", "type": "in vivo, mouse", "text": "Six weeks after creation of CKD and sham mice as described above, animals underwent an AV fistula creation by anastomosing the left common carotid artery to the jugular vein in an end-to-side fashion. Under a sterile condition, a vertical incision was made in the left neck with the left common carotid artery and the adjacent external jugular vein carefully dissected out. The common carotid artery clamp was placed at the proximal portion with an 11-0 nylon suture and the common carotid artery was divided just proximal to the bifurcation. Next, the jugular vein was clamped proximally and distally and punctured in the middle portion with a 27 G syringe. After filling this vein segment with heparinized saline, the venotomy of 0.7 mm in length was performed. […]\nThree weeks after AV fistula creation, animals were euthanized, and the AV anastomoses were perfusion-fixed via the left ventricle at 100 mm Hg pressure as described previously (Leidenfrost J E, et al., Am J Pathol. 2003; 163(2):773-778).^53 Before perfusion fixation, blood was drawn from the left ventricle for the biochemical analysis. Blood urea nitrogen (BUN), phosphorus, and calcium were measured by autoanalyzer techniques in the Animal Facility Clinical Laboratory at Washington University in St. Louis, Mo. […]"}, "[6]": {"tested_on": "LDLR−/− mice with CKD on high fat diet", "conditions": "LDLR-/- mice with CKD fed high fat diets; previous studies (Davies 2003; Davies 2005); cited from earlier work"}}, "note": "Several values for one entry are separate records, joined by “and”; a condition that tells them apart may be missing. Equal values may be shown once."}
{"molecule": "B1", "values": [{"measurement": "aortic calcium (vascular calcification) versus the 22 week start point", "setting": "[1]", "value": "significant reduction of aortic calcification compared to the 22 week start point"}, {"measurement": "serum phosphorus / hyperphosphatemia", "setting": "[2]; CKD high fat fed LDLR-/- mice, treated weeks 22-28 (FIG. 1B, Table 5)", "value": "reduced to normal levels"}, {"measurement": "Phosphorus", "setting": "[2]; serum, LDLR-/-, fat diet, CKD, 28 weeks post natal, BMP-7 10 μg/kg IP weekly or binder 3% in diet", "value": "6.325 ± .471 mg/dL"}, {"measurement": "size of the atherosclerotic lesions", "setting": "[3]; proximal aorta (FIG. 3)", "value": "did not decrease the size of the atherosclerotic lesions"}, {"measurement": "plaque associated calcium deposition", "setting": "[3]; proximal aorta, alizarin red stain (FIG. 3)", "value": "diminished plaque associated calcium deposition"}, {"measurement": "mineralization of the ECM", "setting": "[4]; BMP-7 0.1, 1 and 10 ng/ml, 14 or 21 days in high phosphorus media (FIG. 4)", "value": "decreased mineralization of the ECM"}, {"measurement": "Matrix Ca content, Effects of 10 ng/ml BMP-7", "setting": "[4]; hVSMC from atherosclerotic aortas, one donor (donors 1-7, passage 2-3), 10 ng/ml BMP-7 in high phosphorus (2 mM PO4) media", "value": "18 and 17.9 and 25.8 and 19.8 and 22.1 and 20.3 and 20.6"}, {"measurement": "NH lesion formation induced by CKD", "setting": "[5]; CKD animals, BMP-7 100 μg/kg intraperitoneally twice a week, P<0.01 (FIG. 12)", "value": "eliminated the stimulation of NH lesion formation induced by CKD"}, {"measurement": "NH lesion development", "setting": "[5]; sham operated animals, BMP-7 100 μg/kg intraperitoneally twice a week (FIG. 12)", "value": "no effect"}, {"measurement": "development of aortic calcification (prevention studies)", "setting": "[6]", "value": "prevented the development of aortic calcification"}]}
